B1: anti-SEB monoclonal antibody 2-7A (antibody, V domains shown)
VH: EVLLVESGGGLVQPGGSLRLSCATSGFTFTDYYMSWVRQPPGKALEWLGFIRNKANGYTTKYSASVKGRFTISRDNSQSILYLQMNTLRAEDSATYYCAKDNWEAYFDYWGQGTTLTVSS
VL: DVVMTQTPLSLPVSLGDQASISCRSSQSIVHSNGNTYLEWYLQKPGQSPKLLIYKVSNRFSGVPDRFSGSGSGTDFTLKISRVEAEDLGVYYCFQGSHVPWTFGGGTKLELK
notes: also called 2-7A mAb
B2: anti-SEB monoclonal antibody 4-7A (antibody, V domains shown)
VH: QVQMQQSGAELVRPGASVKLSCKASGYTFTNNWMNWVKQRPGQGLQWIGMIDPSDSETHYNQMFKDKASLTVDKSSSSAYMVLSSLTSEDSAVYYCARRALSYYGSNPTLFDYWGQGTTLTVSS
VL: DIVMSQSPSSLAVSVGEKVTMSCKSSQSLLYSSNQKNYLAWYQQKPGQSPKLLIYWASTWESGVPDRFTGSGSGTNFTLTINSVKTEDLAVYYCQQYSGYPYTFGGGTKLELK
notes: also called 4-7A mAb
B3: anti-SEB monoclonal antibody 11-7E (antibody, V domains shown)
VH: QVQLKESGPELVRPGVSVKISCKGSGYTFTDYAMHWVKQSHAKSLEWIGIISTYSGNTNYNQKFKAKATMTVDKSSSTAYMELARLTSEDSAIYYCAREGYYGSSRSFDVWGAGTTLTVSS
VL: QIVLTQSPALMSASPGEKVTMTCSASSSVSYMYWYQQKPRSSPKPWIYLTSNLASGVPARFSGSGSGTSYSLTISSMEAEDAATYYCQQWSSNPLTFGAGTKLELK
notes: also called 11-7E mAb

Tests used:
[1] = target: T1, recombinant SEB produced by BEVS (staphylococcal enterotoxin B, 6x His-tagged) (Staphylococcus aureus., UniProt P01552); test: ELISA; details: both partners purified
T1 construct: not shown: His6, C-terminal, kept

[2] = target: T1, recombinant SEB produced by BEVS …; test: BLI; details: both partners purified
[3] = target: natural SEB secreted from S. aureus strain CCARM 3089 (Staphylococcus aureus CCARM 3089, UniProt P01552, strain); test: ELISA; details: one partner purified
[4] = target: natural SEB secreted from S. aureus strain SA2 (Staphylococcus aureus SA2 (bovine …, UniProt P01552, strain)); test: ELISA; details: one partner purified

Binder	EC50 [1] [nM]	Kd [2] [nM]	koff [2] [s⁻¹]	kon [2] [M⁻¹ s⁻¹]	binding result [3]	binding result [4]
B1	13.5	0.55	7.02e-05	128000		
B2	14.5	1.55	0.000226	146000		
B3	16.7	0.331	3.27e-05	99000	binds	binds

— publication PMC9599101 (Biosensors, 2022)
